According to US20250059282A1:

Assays:
[1] = biological target: Cyno PD-L1-Fc (cynomolgus) (UniProt G7PSE7); assay: ForteBio, IgG, avid
[2] = biological target: Cyno PD-L2-Fc (cynomolgus); assay: ForteBio, IgG, avid
Mouse PD-L1-Fc (mouse) = Mouse PD-L1-Fc (mouse) (UniProt Q9EP73); assay: ForteBio, IgG, avid
Mouse PD-L2-Fc (mouse) = Mouse PD-L2-Fc (mouse) (UniProt Q9WUL5); assay: ForteBio, IgG, avid
Human PD-L1-HIS (human) = Human PD-L1-HIS (human) (UniProt Q9NZQ7); assay: ForteBio, IgG, monovalent
Human PD-L2-HIS (human) = Human PD-L2-HIS (human) (UniProt Q9BQ51); assay: ForteBio, IgG, monovalent
Human PD-L2-HIS (human), sequence (Q9BQ51 20-220): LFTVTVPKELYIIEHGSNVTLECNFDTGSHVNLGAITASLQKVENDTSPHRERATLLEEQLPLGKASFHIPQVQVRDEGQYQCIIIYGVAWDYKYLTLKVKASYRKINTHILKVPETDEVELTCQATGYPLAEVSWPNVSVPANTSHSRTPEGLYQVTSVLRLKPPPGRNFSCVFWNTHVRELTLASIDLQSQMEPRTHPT

Human PD-L1-HIS (human), sequence (Q9NZQ7 19-238 limits assumed): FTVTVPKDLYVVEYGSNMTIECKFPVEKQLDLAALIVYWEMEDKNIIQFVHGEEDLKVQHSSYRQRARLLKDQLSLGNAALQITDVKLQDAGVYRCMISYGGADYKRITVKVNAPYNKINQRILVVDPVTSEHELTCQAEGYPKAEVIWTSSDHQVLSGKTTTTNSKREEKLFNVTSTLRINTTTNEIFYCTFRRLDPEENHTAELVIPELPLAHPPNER
Mouse PD-L2-Fc (mouse), sequence (Q9WUL5 20-219 limits assumed): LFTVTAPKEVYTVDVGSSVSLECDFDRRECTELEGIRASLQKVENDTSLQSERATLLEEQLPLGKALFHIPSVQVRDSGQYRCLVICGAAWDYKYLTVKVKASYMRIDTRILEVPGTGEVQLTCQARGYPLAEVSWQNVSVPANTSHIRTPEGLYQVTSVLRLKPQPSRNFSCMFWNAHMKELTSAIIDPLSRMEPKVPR
Cyno PD-L1-Fc (cynomolgus), sequence (G7PSE7 entry or part of it limits assumed): as the sequence (Q9NZQ7 19-238 limits assumed) above, with A33T, A34S, S62N, R68Q, Q82R, F173L, T185A, T192I, H215L counted along it
Cyno PD-L2-Fc (cynomolgus), sequence (chain, as listed by the source): as the sequence (Q9BQ51 20-220) above, with V19A, P62S, S67L, V139I, P166H, T178A, H179Q, M194I counted along it
Mouse PD-L1-Fc (mouse), sequence (Q9EP73 19-239 limits assumed): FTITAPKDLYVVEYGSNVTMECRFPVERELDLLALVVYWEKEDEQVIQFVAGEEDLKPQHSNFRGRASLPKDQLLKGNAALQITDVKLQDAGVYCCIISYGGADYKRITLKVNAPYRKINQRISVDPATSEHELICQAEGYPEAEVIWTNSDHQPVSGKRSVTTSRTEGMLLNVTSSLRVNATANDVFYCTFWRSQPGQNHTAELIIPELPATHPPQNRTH

B1: BiPDL3-54 (antibody, part only; not given: light chain variable domain, V domains shown, part only)
VH: QVQLQQWGAGLLKPSETLSLTCAVYGGSLSGYPWSWIRQPPGKGLEWIGETDVSGWTDYNPSLKSRVTISVDTSKNQFSLKLSSVTAADTAVYYCARDGRRMGTPSFDIWGQGTMVTVSS
Kd [1]: 0.442 nM | Kd [2]: 0.621 nM | Kd (Mouse PD-L1-Fc (mouse)): 2.97 nM | Kd (Mouse PD-L2-Fc (mouse)): 0.694 nM | Kd (Human PD-L1-HIS (human)): 15.5 nM | Kd (Human PD-L2-HIS (human)): 2.2 nM
